# Reference: patent publication US20140087995A1 (published 2014)
# Numbering of substitutions follows the chain as printed. Numbered stars: 1 amine (or outer) side, 2 acyl side, 3 side chain; on linkers, the order of the positions; unused ones are H or OH. Bridge positions count the residues as written; N and C are the ends. Side chains are listed from the residue outwards. Ends that are not written are not given here. * marks the point of attachment. C20 diacid = O=C(O)CCCCCCCCCCCCCCCCCCC(=O)*; γGlu = O=C(O)[C@H](CCC(=O)[*:2])N[*:1]
# T1: human calcitonin receptor (human, UniProt P30988 25-474)
# T1 construct: whole, on cells; Used as cell membranes prepared from the transfected BHK cells (Assay VII), not as intact cells; also called hCTR; hCT
# T1 sequence (looked up): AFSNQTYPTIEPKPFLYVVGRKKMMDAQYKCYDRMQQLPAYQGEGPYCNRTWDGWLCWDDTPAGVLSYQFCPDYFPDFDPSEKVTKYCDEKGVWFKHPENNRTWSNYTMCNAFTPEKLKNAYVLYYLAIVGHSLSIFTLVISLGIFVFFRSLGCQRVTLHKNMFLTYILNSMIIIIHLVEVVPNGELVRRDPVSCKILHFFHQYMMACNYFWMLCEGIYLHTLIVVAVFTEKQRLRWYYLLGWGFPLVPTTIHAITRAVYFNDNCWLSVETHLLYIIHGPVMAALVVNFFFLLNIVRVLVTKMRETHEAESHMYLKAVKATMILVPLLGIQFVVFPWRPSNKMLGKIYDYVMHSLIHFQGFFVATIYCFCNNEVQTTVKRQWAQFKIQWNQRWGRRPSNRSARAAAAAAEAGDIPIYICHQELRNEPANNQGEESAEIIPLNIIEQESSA
# T2: human calcitonin receptor (human, UniProt P30988 25-474)
# T2 construct: whole, on cells; Assay used cell membranes of the transfected BHK cells; also called hCTR; hCT
# T2 sequence (looked up): T1 sequence (looked up)
# B1: N^α1 N^α1-[(4S)-4-carboxy-4-[[(4S)-4-carboxy-4-(19-carboxynonadecanoylamino)butanoyl]amino]butanoyl]-[Glu14,Arg17,Pro21,Pro27]-h-amylin (peptide)
# peptide: {C20 diacid-γGlu-γGlu}-KCNTATCATQRLAEFLRHSSPNFGAIPSSTNVGSNTY-NH2
# modifications: disulfide 2-7
# SMILES: CC[C@H](C)[C@H](NC(=O)[C@H](C)NC(=O)CNC(=O)[C@H](Cc1ccccc1)NC(=O)[C@H](CC(N)=O)NC(=O)[C@@H]1CCCN1C(=O)[C@H](CO)NC(=O)[C@H](CO)NC(=O)[C@H](Cc1c[nH]cn1)NC(=O)[C@H](CCCNC(=N)N)NC(=O)[C@H](CC(C)C)NC(=O)[C@H](Cc1ccccc1)NC(=O)[C@H](CCC(=O)O)NC(=O)[C@H](C)NC(=O)[C@H](CC(C)C)NC(=O)[C@H](CCCNC(=N)N)NC(=O)[C@H](CCC(N)=O)NC(=O)[C@@H](NC(=O)[C@H](C)NC(=O)[C@@H]1CSSC[C@H](NC(=O)[C@H](CCCCN)NC(=O)CC[C@H](NC(=O)CC[C@H](NC(=O)CCCCCCCCCCCCCCCCCCC(=O)O)C(=O)O)C(=O)O)C(=O)N[C@@H](CC(N)=O)C(=O)N[C@@H]([C@@H](C)O)C(=O)N[C@@H](C)C(=O)N[C@@H]([C@@H](C)O)C(=O)N1)[C@@H](C)O)C(=O)N1CCC[C@H]1C(=O)N[C@@H](CO)C(=O)N[C@@H](CO)C(=O)N[C@H](C(=O)N[C@@H](CC(N)=O)C(=O)N[C@H](C(=O)NCC(=O)N[C@@H](CO)C(=O)N[C@@H](CC(N)=O)C(=O)N[C@H](C(=O)N[C@@H](Cc1ccc(O)cc1)C(N)=O)[C@@H](C)O)C(C)C)[C@@H](C)O
# notes: also called compound 15
# B2: N^α1-[(4S)-4-carboxy-4-(19-carboxynonadecanoylamino)butanoyl]-[Arg17,Pro21,Pro27,Arg34]-h-amylin (peptide)
# peptide: KCNTATCATQRLANFLRHSSPNFGAIPSSTNVGRNTY
# modifications: C20 diacid-gGlu on the alpha amino group of the N-terminal Lys1; disulfide Cys2-Cys7; C-terminal amide
# notes: also called compound 39
# B3: N^α1-[2-[2-[2-[[2-[2-[2-[[(4S)-4-carboxy-4-(19-carboxynonadecanoylamino)butanoyl]amino]ethoxy]ethoxy]acetyl]amino]ethoxy]ethoxy]acetyl]-[Glu14,Arg17,Pro21,Pro27 … (peptide)
# peptide: B2 peptide with N14E, R34S
# modifications: C20 diacid-gGlu-2xOEG on the alpha amino group of the N-terminal Lys1; disulfide Cys2-Cys7; C-terminal amide
# notes: also called compound 19
# B4: N^α1-[(4S)-4-carboxy-4-(19-carboxynonadecanoylamino)butanoyl]-[Arg17,Pro21,Pro27,Lys35]-h-amylin (peptide)
# peptide: B2 peptide with R34S, N35K
# modifications: C20 diacid-gGlu on the alpha amino group of the N-terminal Lys1; disulfide Cys2-Cys7; C-terminal amide
# notes: also called compound 34
# B5: N^α1-[(4S)-4-carboxy-4-(19-carboxynonadecanoylamino)butanoyl]-[Arg17,Pro21,Pro27,Glu35]-h-amylin (peptide)
# peptide: B2 peptide with R34S, N35E
# modifications: C20 diacid-gGlu on the alpha amino group of the N-terminal Lys1; disulfide Cys2-Cys7; C-terminal amide
# notes: also called compound 23
# B6: N^α1-[(4S)-4-carboxy-4-(19-carboxynonadecanoylamino)butanoyl]-[Arg17,Pro21,Pro27,Pro31,Glu35]-h-amylin (peptide)
# peptide: {C20 diacid-γGlu}-KCNTATCATQRLANFLRHSSPNFGAIPSSTPVGSETY-NH2
# modifications: disulfide 2-7
# SMILES: CC[C@H](C)[C@H](NC(=O)[C@H](C)NC(=O)CNC(=O)[C@H](Cc1ccccc1)NC(=O)[C@H](CC(N)=O)NC(=O)[C@@H]1CCCN1C(=O)[C@H](CO)NC(=O)[C@H](CO)NC(=O)[C@H](Cc1c[nH]cn1)NC(=O)[C@H](CCCNC(=N)N)NC(=O)[C@H](CC(C)C)NC(=O)[C@H](Cc1ccccc1)NC(=O)[C@H](CC(N)=O)NC(=O)[C@H](C)NC(=O)[C@H](CC(C)C)NC(=O)[C@H](CCCNC(=N)N)NC(=O)[C@H](CCC(N)=O)NC(=O)[C@@H](NC(=O)[C@H](C)NC(=O)[C@@H]1CSSC[C@H](NC(=O)[C@H](CCCCN)NC(=O)CC[C@H](NC(=O)CCCCCCCCCCCCCCCCCCC(=O)O)C(=O)O)C(=O)N[C@@H](CC(N)=O)C(=O)N[C@@H]([C@@H](C)O)C(=O)N[C@@H](C)C(=O)N[C@@H]([C@@H](C)O)C(=O)N1)[C@@H](C)O)C(=O)N1CCC[C@H]1C(=O)N[C@@H](CO)C(=O)N[C@@H](CO)C(=O)N[C@H](C(=O)N1CCC[C@H]1C(=O)N[C@H](C(=O)NCC(=O)N[C@@H](CO)C(=O)N[C@@H](CCC(=O)O)C(=O)N[C@H](C(=O)N[C@@H](Cc1ccc(O)cc1)C(N)=O)[C@@H](C)O)C(C)C)[C@@H](C)O
# notes: also called compound 28
# B7: N^α1-[(4S)-4-carboxy-4-(19-carboxynonadecanoylamino)butanoyl]-[Arg17,Pro21,Pro27,His34]-h-amylin (peptide)
# peptide: B2 peptide with R34H
# modifications: C20 diacid-gGlu on the alpha amino group of the N-terminal Lys1; disulfide Cys2-Cys7; C-terminal amide
# notes: also called compound 40
# B8: N^ε1-[(4S)-4-carboxy-4-(19-carboxynonadecanoylamino)butanoyl]-[Glu14,Arg17,Pro21,Pro27,Arg35]-h-amylin (peptide)
# peptide: K([γGlu-C20 diacid])CNTATCATQRLAEFLRHSSPNFGAIPSSTNVGSRTY-NH2
# modifications: disulfide 2-7; N-terminus assumed
# SMILES: CC[C@H](C)[C@H](NC(=O)[C@H](C)NC(=O)CNC(=O)[C@H](Cc1ccccc1)NC(=O)[C@H](CC(N)=O)NC(=O)[C@@H]1CCCN1C(=O)[C@H](CO)NC(=O)[C@H](CO)NC(=O)[C@H](Cc1c[nH]cn1)NC(=O)[C@H](CCCNC(=N)N)NC(=O)[C@H](CC(C)C)NC(=O)[C@H](Cc1ccccc1)NC(=O)[C@H](CCC(=O)O)NC(=O)[C@H](C)NC(=O)[C@H](CC(C)C)NC(=O)[C@H](CCCNC(=N)N)NC(=O)[C@H](CCC(N)=O)NC(=O)[C@@H](NC(=O)[C@H](C)NC(=O)[C@@H]1CSSC[C@H](NC(=O)[C@@H](N)CCCCNC(=O)CC[C@H](NC(=O)CCCCCCCCCCCCCCCCCCC(=O)O)C(=O)O)C(=O)N[C@@H](CC(N)=O)C(=O)N[C@@H]([C@@H](C)O)C(=O)N[C@@H](C)C(=O)N[C@@H]([C@@H](C)O)C(=O)N1)[C@@H](C)O)C(=O)N1CCC[C@H]1C(=O)N[C@@H](CO)C(=O)N[C@@H](CO)C(=O)N[C@H](C(=O)N[C@@H](CC(N)=O)C(=O)N[C@H](C(=O)NCC(=O)N[C@@H](CO)C(=O)N[C@@H](CCCNC(=N)N)C(=O)N[C@H](C(=O)N[C@@H](Cc1ccc(O)cc1)C(N)=O)[C@@H](C)O)C(C)C)[C@@H](C)O
# notes: Synthetic analogue; also called compound 51
# B9: N^ε1-[(4S)-4-carboxy-4-(19-carboxynonadecanoylamino)butanoyl]-[His14,Arg17,Pro21,Pro27,Pro31]-h-amylin (peptide)
# peptide: K([γGlu-C20 diacid])CNTATCATQRLAHFLRHSSPNFGAIPSSTPVGSNTY-NH2
# modifications: disulfide 2-7; N-terminus assumed
# SMILES: CC[C@H](C)[C@H](NC(=O)[C@H](C)NC(=O)CNC(=O)[C@H](Cc1ccccc1)NC(=O)[C@H](CC(N)=O)NC(=O)[C@@H]1CCCN1C(=O)[C@H](CO)NC(=O)[C@H](CO)NC(=O)[C@H](Cc1c[nH]cn1)NC(=O)[C@H](CCCNC(=N)N)NC(=O)[C@H](CC(C)C)NC(=O)[C@H](Cc1ccccc1)NC(=O)[C@H](Cc1c[nH]cn1)NC(=O)[C@H](C)NC(=O)[C@H](CC(C)C)NC(=O)[C@H](CCCNC(=N)N)NC(=O)[C@H](CCC(N)=O)NC(=O)[C@@H](NC(=O)[C@H](C)NC(=O)[C@@H]1CSSC[C@H](NC(=O)[C@@H](N)CCCCNC(=O)CC[C@H](NC(=O)CCCCCCCCCCCCCCCCCCC(=O)O)C(=O)O)C(=O)N[C@@H](CC(N)=O)C(=O)N[C@@H]([C@@H](C)O)C(=O)N[C@@H](C)C(=O)N[C@@H]([C@@H](C)O)C(=O)N1)[C@@H](C)O)C(=O)N1CCC[C@H]1C(=O)N[C@@H](CO)C(=O)N[C@@H](CO)C(=O)N[C@H](C(=O)N1CCC[C@H]1C(=O)N[C@H](C(=O)NCC(=O)N[C@@H](CO)C(=O)N[C@@H](CC(N)=O)C(=O)N[C@H](C(=O)N[C@@H](Cc1ccc(O)cc1)C(N)=O)[C@@H](C)O)C(C)C)[C@@H](C)O
# notes: Synthetic analogue; also called compound 62
# B10: N^ε1-[(4S)-4-carboxy-4-[[(4S)-4-carboxy-4-(19-carboxynonadecanoylamino)butanoyl]amino]butanoyl]-[Asp14,Arg17,Pro21,Pro27,Arg35]-h-amylin (peptide)
# peptide: K([γGlu-γGlu-C20 diacid])CNTATCATQRLADFLRHSSPNFGAIPSSTNVGSRTY-NH2
# modifications: disulfide 2-7; N-terminus assumed
# SMILES: CC[C@H](C)[C@H](NC(=O)[C@H](C)NC(=O)CNC(=O)[C@H](Cc1ccccc1)NC(=O)[C@H](CC(N)=O)NC(=O)[C@@H]1CCCN1C(=O)[C@H](CO)NC(=O)[C@H](CO)NC(=O)[C@H](Cc1c[nH]cn1)NC(=O)[C@H](CCCNC(=N)N)NC(=O)[C@H](CC(C)C)NC(=O)[C@H](Cc1ccccc1)NC(=O)[C@H](CC(=O)O)NC(=O)[C@H](C)NC(=O)[C@H](CC(C)C)NC(=O)[C@H](CCCNC(=N)N)NC(=O)[C@H](CCC(N)=O)NC(=O)[C@@H](NC(=O)[C@H](C)NC(=O)[C@@H]1CSSC[C@H](NC(=O)[C@@H](N)CCCCNC(=O)CC[C@H](NC(=O)CC[C@H](NC(=O)CCCCCCCCCCCCCCCCCCC(=O)O)C(=O)O)C(=O)O)C(=O)N[C@@H](CC(N)=O)C(=O)N[C@@H]([C@@H](C)O)C(=O)N[C@@H](C)C(=O)N[C@@H]([C@@H](C)O)C(=O)N1)[C@@H](C)O)C(=O)N1CCC[C@H]1C(=O)N[C@@H](CO)C(=O)N[C@@H](CO)C(=O)N[C@H](C(=O)N[C@@H](CC(N)=O)C(=O)N[C@H](C(=O)NCC(=O)N[C@@H](CO)C(=O)N[C@@H](CCCNC(=N)N)C(=O)N[C@H](C(=O)N[C@@H](Cc1ccc(O)cc1)C(N)=O)[C@@H](C)O)C(C)C)[C@@H](C)O
# notes: Synthetic analogue of human amylin; also called compound 52
# Target: T1, human calcitonin receptor
# Assay: SPA competition against 125I-calcitonin, membranes with human calcitonin receptor (Assay VII)
# Procedure: Membranes were prepared in the following way; the cells were rinsed with PBS and incubated with Versene for approximately 5 min before harvesting. The cells were flushed with PBS and the cell-suspension was centrifuged for 5 min at 1000 rpm. Cells were homogenized (Ultrathurrax) in a buffer containing 20 mM Na-HEPES and 10 mM EDTA (pH 7.4) and centrifuged at 20.000 rpm for 15 min. The resulting pellet was resuspended, homogenized and centrifuged (20.000 rpm, 15 min) in a buffer containing 20 mM Na-HEPES and 0.1 mM EDTA (pH 7.4, buffer 2). The resulting pellet was resuspended in buffer 2 and protein concentration was measured (BCA protein Assay, Pierce). The homogenate was kept cold during the whole procedure. The membranes were kept at −80° C. until use. Assay was performed in a 384 well Optiplate (PerkinElmer) in a total volume of 40 ul. Membranes were mixed with SPA beads. Final concentration of membranes 35 ng/μL final and Final concentration of SPA beads was 0.05 mg/well. Test-compounds were dissolved in DMSO and further diluted in assay buffer (50 mM Hepes, pH 7.4, 1 mM CaCl2, 5 mM MgCl₂, 0.1% OA and 0.02% Tween20). […] The final mixture was incubated for 120 min with shaking at 400 rpm at 25° C. prior to centrifugation (1500 rpm, 10 min). Samples were analyzed on TopCounter™ (Packard). The […] was calculated using (one site binding competition analysis) GraphPad Prism5 as a measure of receptor affinity.
row,Binder,IC50 [nM]
1,B1,15.5
2,B2,19.3
3,B3,20.4
4,B4,73.4
5,B5,21.8
6,B6,12.5
7,B7,17.1

# Target: T2, human calcitonin receptor
# Assay: SPA radioligand competition (125I-calcitonin), membranes of BHK cells with human calcitonin receptor
# Summary of the method: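 BHK hCTR membranes 35 ng/μL + SPA beads 0.05 mg/well; buffer 50 mM Hepes pH 7.4, 1 mM CaCl2, 5 mM MgCl₂, 0.1% OA, 0.02% Tween20. 120 min, 25° C., shaking. Scintillation count; IC50 by one-site binding competition.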
row,Binder,IC50 [nM]
1,B8,31.1
2,B9,6.17
3,B10,56.9
